Data reported in IntAct's records for PubMed 25122212.

B1: Envelope small membrane protein (Human SARS coronavirus), P59637 (parent)
chain: MYSFVSEETGTLIVNSVLLFLAFVVFLLVTLAILTALRLCAYCCNIVNVSLVKPTVYVYSRVKNLNSSEGVPDLLV

Variants of: B1
Settings: with SDCBP

Variant | effect of a mutation on the interaction
D73G;L74G;L75G;V76G | decreasing interaction strength

Variants of: B1
Settings: with SDCBP
Remark: another data set of the same source

Variant | effect of a mutation on the interaction
E69A;V71A;D73A;L75A | with no effect
